Substitutions are numbered along the chain they refer to. Names and notes keep the numbering of the source. Values joined by “and” are separate entries in the source; they are usually repeats but may differ in a detail not shown here. Identical values can stand only once. One block for each binder: values may come before it.
Target: T1, recombinant human FGF23 (R179Q) (human, UniProt Q9GZV9 25-251)
T1 construct: also called rhFGF23(R179Q); hFGF23(R179Q)
T1 sequence (looked up): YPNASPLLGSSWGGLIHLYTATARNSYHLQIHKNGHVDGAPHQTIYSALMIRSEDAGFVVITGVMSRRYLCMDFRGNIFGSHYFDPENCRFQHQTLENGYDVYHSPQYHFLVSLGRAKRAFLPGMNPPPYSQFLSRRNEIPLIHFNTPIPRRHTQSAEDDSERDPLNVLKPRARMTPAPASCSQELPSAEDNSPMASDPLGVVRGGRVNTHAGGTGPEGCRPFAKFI
Experiment: SPR, antibody captured on hIgG chip, rhFGF23(R179Q) analyte

Kd: 0.0504 nM and 0.0703 nM
Ratio (variant antibody KD/burosumab KD): 0
koff: 0.000169 s⁻¹ and 0.000204 s⁻¹
kon: 3.35e+06 M⁻¹ s⁻¹ and 2.9e+06 M⁻¹ s⁻¹
B1: UGX117 (antibody, human IgG1, kappa, V domains shown)
VH: QVQLVQSGAEVKKPGASVKVSCKASGYTFTNHYMHWVRQAPGQGLEWMGIINPISGSTSNAQKFQGRVTMTRDTSTSTVYMELSSLRSEDTAVYYCARDIVDAFDFWGQGTMVTVSS
VL: AIQLTQSPSSLSASVGDRVTITCRASQGISSALIWYQQKPGKAPKLLIYDASSLESGVPSRFSGSGSGTDFTLTISSLQPEDFATYYCQQFNDYFTFGPGTKVDIKR
notes: also called LC:V34I

Kd: 0.0183 nM
Ratio (variant antibody KD/burosumab KD): 1
SA (surface activity): 95.8%
koff: 0.000253 s⁻¹
kon: 1.39e+07 M⁻¹ s⁻¹
B2: UGX188 (antibody, human IgG1, kappa, V domains shown)
VH: B1 VH with S57E, S59D
VL: B1 VL with I34V
notes: also called HC:S57E, HC:S59D

Kd: 0.0986 nM
Ratio (variant antibody KD/burosumab KD): 0
SA (surface activity): 88.4%
koff: 0.000472 s⁻¹
kon: 4.79e+06 M⁻¹ s⁻¹
B3: UGX162 (antibody, human IgG1, kappa, V domains shown)
VH: B1 VH with S59L
VL: B1 VL with I34V
notes: also called HC:S59L

Kd: 0.0142 nM and 0.0147 nM and 0.0146 nM
Ratio (variant antibody KD/burosumab KD): 1
koff: 8.7e-05 s⁻¹ and 9.61e-05 s⁻¹ and 9.01e-05 s⁻¹
kon: 6.2e+06 M⁻¹ s⁻¹ (2×) and 6.5e+06 M⁻¹ s⁻¹
B4: UGX160 (antibody, human IgG1, kappa, V domains shown)
VH: B1 VH with S59F
VL: B1 VL with I34V
notes: also called UGX066; HC:S59F

Kd: 0.0272 nM
Ratio (variant antibody KD/burosumab KD): 1
SA (surface activity): 91.2%
koff: 0.000181 s⁻¹
kon: 6.65e+06 M⁻¹ s⁻¹
B5: UGX148 (antibody, human IgG1, kappa, V domains shown)
VH: B1 VH with T30F
VL: B1 VL with I34V
notes: also called HC:T30F

Kd: 0.0336 nM
Ratio (variant antibody KD/burosumab KD): 1
SA (surface activity): 91.9%
koff: 0.00019 s⁻¹
kon: 5.64e+06 M⁻¹ s⁻¹
B6: UGX164 (antibody, human IgG1, kappa, V domains shown)
VH: B1 VH with S59T
VL: B1 VL with I34V
notes: also called HC:S59T

Kd: 0.0393 nM
Ratio (variant antibody KD/burosumab KD): 1
SA (surface activity): 95.7%
koff: 0.000266 s⁻¹
kon: 6.78e+06 M⁻¹ s⁻¹
B7: UGX131 (antibody, human IgG1, kappa, V domains shown)
VH: B1 VH
VL: B1 VL with I34V, S53F
notes: also called LC:S53F

kon: 2.63e+06 M⁻¹ s⁻¹ and 2.27e+06 M⁻¹ s⁻¹
B8: UGX140 (antibody, human IgG1, kappa, V domains shown)
VH: B1 VH
VL: B1 VL with I34V, D93F
notes: also called UGX039; LC:D93F

Kd: 0.112 nM
Ratio (variant antibody KD/burosumab KD): 0
SA (surface activity): 83.7%
koff: 0.000322 s⁻¹
kon: 2.87e+06 M⁻¹ s⁻¹
B9: UGX153 (antibody, human IgG1, kappa, V domains shown)
VH: B1 VH with N31R
VL: B1 VL with I34V
notes: also called HC:N31R

Kd: 0.0212 nM
Ratio (variant antibody KD/burosumab KD): 1
SA (surface activity): 85.6%
koff: 0.000134 s⁻¹
kon: 6.33e+06 M⁻¹ s⁻¹
B10: UGX178 (antibody, human IgG1, kappa, V domains shown)
VH: B1 VH with N31F, S59F
VL: B1 VL with I34V
notes: also called HC:N31F, HC:S59F

Kd: 0.0319 nM
Ratio (variant antibody KD/burosumab KD): 1
SA (surface activity): 86.5%
koff: 0.000161 s⁻¹
kon: 5.04e+06 M⁻¹ s⁻¹
B11: UGX137 (antibody, human IgG1, kappa, V domains shown)
VH: B1 VH
VL: B1 VL with I34V, N92F
notes: also called UGX035; LC:N92F

Kd: 0.0348 nM
Ratio (variant antibody KD/burosumab KD): 1
SA (surface activity): 88.4%
koff: 0.000358 s⁻¹
kon: 1.03e+07 M⁻¹ s⁻¹
B12: UGX130 (antibody, human IgG1, kappa, V domains shown)
VH: B1 VH
VL: B1 VL with I34V, S53E
notes: also called LC:S53E

Kd: 0.0416 nM
Ratio (variant antibody KD/burosumab KD): 0
SA (surface activity): 91.2%
koff: 0.000262 s⁻¹
kon: 6.29e+06 M⁻¹ s⁻¹
B13: UGX152 (antibody, human IgG1, kappa, V domains shown)
VH: B1 VH with N31Q
VL: B1 VL with I34V
notes: also called HC:N31Q

Kd: 0.202 nM
Ratio (variant antibody KD/burosumab KD): 0
SA (surface activity): 84.8%
koff: 0.000733 s⁻¹
kon: 3.63e+06 M⁻¹ s⁻¹
B14: UGX133 (antibody, human IgG1, kappa, V domains shown)
VH: B1 VH
VL: B1 VL with I34V, S53Y
notes: also called UGX022; LC:S53Y

Kd: 0.0332 nM
Ratio (variant antibody KD/burosumab KD): 1
SA (surface activity): 89.9%
koff: 0.00017 s⁻¹
kon: 5.14e+06 M⁻¹ s⁻¹
B15: UGX146 (antibody, human IgG1, kappa, V domains shown)
VH: B1 VH
VL: B1 VL with I34V, Y94F
notes: also called LC:Y94F

Kd: 0.061 nM
Ratio (variant antibody KD/burosumab KD): 0
SA (surface activity): 84.2%
koff: 0.000267 s⁻¹
kon: 4.38e+06 M⁻¹ s⁻¹
B16: UGX161 (antibody, human IgG1, kappa, V domains shown)
VH: B1 VH with S59I
VL: B1 VL with I34V
notes: also called HC:S59I

Kd: 0.0226 nM and 0.0251 nM
Ratio (variant antibody KD/burosumab KD): 1
koff: 0.000224 s⁻¹ and 0.000222 s⁻¹
kon: 9.91e+06 M⁻¹ s⁻¹ and 8.83e+06 M⁻¹ s⁻¹
B17: UGX159 (antibody, human IgG1, kappa, V domains shown)
VH: B1 VH with S59E
VL: B1 VL with I34V
notes: also called HC:S59E

Kd: 0.0255 nM
Ratio (variant antibody KD/burosumab KD): 1
SA (surface activity): 90.3%
koff: 0.000212 s⁻¹
kon: 8.32e+06 M⁻¹ s⁻¹
B18: UGX151 (antibody, human IgG1, kappa, V domains shown)
VH: B1 VH with N31F
VL: B1 VL with I34V
notes: also called HC:N31F

Kd: 0.0176 nM
Ratio (variant antibody KD/burosumab KD): 1
SA (surface activity): 85%
koff: 0.000122 s⁻¹
kon: 6.93e+06 M⁻¹ s⁻¹
B19: UGX127 (antibody, human IgG1, kappa, V domains shown)
VH: B1 VH
VL: B1 VL with I34V, S52E
notes: also called UGX017; LC:S52E

Kd: 0.0235 nM
Ratio (variant antibody KD/burosumab KD): 1
SA (surface activity): 100%
koff: 0.000181 s⁻¹
kon: 7.71e+06 M⁻¹ s⁻¹
B20: UGX135 (antibody, human IgG1, kappa, V domains shown)
VH: B1 VH
VL: B1 VL with I34V, N92D
notes: also called LC:N92D

Kd: 0.0224 nM
Ratio (variant antibody KD/burosumab KD): 1
SA (surface activity): 93.1%
koff: 0.000196 s⁻¹
kon: 8.77e+06 M⁻¹ s⁻¹
B21: UGX166 (antibody, human IgG1, kappa, V domains shown)
VH: B1 VH with S59Y
VL: B1 VL with I34V
notes: also called UGX068; HC:S59Y

Kd: 0.0363 nM and 0.0448 nM
koff: 0.000175 s⁻¹ and 0.00022 s⁻¹
kon: 4.82e+06 M⁻¹ s⁻¹ and 4.92e+06 M⁻¹ s⁻¹
B22: UGX165 (antibody, human IgG1, kappa, V domains shown)
VH: B1 VH with S59V
VL: B1 VL with I34V
notes: also called HC:S59V
